Measured values published in patent publication US20260201030A1, “ANTIBODY, ANTIBODY-DRUG CONJUGATE THEREOF AND USE THEREOF” (EVOPOINT BIOSCIENCES CO., LTD., priority 2021, published 2026).
Positions count from the first letter of the chain named.

B1: 25C7A5-HZ1: humanized anti-Claudin18.2 antibody, VH SEQ ID NO: 1, VL SEQ ID NO: 2, human IgG1/Kappa constant regions (antibody, V domains shown)
VH: QVQLVQSGAEVKKPGSSVKVSCKASGYTFTNYWLHWVRQAPGQGLEWMGMMHPISGSSNYAQKFQGRATLTVDKSTSTAYMELSSLRSEDTAVYYCARGLLSAMDYWGQGTLVTVSS
VL: EIVLTQSPATLSLSPGERATLSCKASENVKTYVSWYQQKPGQSPRLLIYEASNRYTGVPARFSGSGSATDFTLTISSLEPEDFAVYFCGQTYSFPPTFGQGTKVEIK
modifications: human IgG1/kappa constant regions
B2: 25C7A5-HZ2: humanized anti-Claudin18.2 antibody, VH SEQ ID NO: 3, VL SEQ ID NO: 2, human IgG1/Kappa constant regions (antibody, V domains shown)
VH: B1 VH with Q6E
VL: B1 VL
modifications: human IgG1/kappa constant regions

How the values were obtained:
human Claudin18.2 [1] = target: T1, human Claudin18.2 (Homo sapiens, UniProt P56856); test: Cell-based ELISA affinity of humanized antibodies on L929-Claudin18.2 (human) cells; assay type: binding; conditions: L929-Claudin18.2 cells
T1 construct: expressed in transfected cells

human Claudin18.2 [2] = target: T1, human Claudin18.2; test: Cell-based ELISA affinity of humanized antibodies on HEK293T-Claudin18.2 (human) cells; assay type: binding; conditions: HEK293T-Claudin18.2 cells
Procedure: The affinity of the anti-human Claudin18.2 murine monoclonal antibodies was evaluated by cell-based ELISA. The experimental procedures were as follows: The day before the experiment, HEK293T-Claudin18.2 (human) cells were plated in a 96-well plate at 5×10^4 cells/well. On the day of the experiment, the supernatant was removed, the cells in each well were washed once with 300 μL of PBS, and 100 μL of 4% paraformaldehyde was added to each well for fixation at room temperature for 20 min. Paraformaldehyde was then removed, and the cells in each well were washed twice with 300 μL of PBS. 100 μL of 2% BSA (in PBS) was added to each well, and the mixture was blocked at 37° C. for 2 h. After removing the blocking solution, each antibody subjected to gradient dilution (diluted with 2% BSA (in PBS), starting at […], in a 3-fold gradient, for a total of 11 concentration points) was added to the plate at 100 μL/well, and the mixture was incubated at 37° C. for 2 h. The supernatant was removed, and the cells in each well were washed three times with 300 μL of PBST. 100 μL of an anti-mouse IgG HRP secondary antibody (Jackson, cat #115-035-003) in 2% BSA was added to each well, and the mixture was incubated at 37° C. for 1 h. The secondary antibody was then removed, and the cells in each well were washed five times with 300 μL of PBST, followed by the addition of 100 μL of a TMB substrate (Huzhou InnoReagents Co., Ltd.) per well for color development for 5-20 min. The reaction was stopped by adding 50 μL of 2 N HCl to each well, and OD450 nm values were read on a microplate reader (manufacturer: MD, model: SpectraMax). The values obtained were plotted by GraphPad Prism to calculate the EC50 value.
The affinity of the anti-human Claudin18.2 humanized monoclonal antibodies was determined by cell-based ELISA. The cell-based ELISA was conducted as described in Example I-3.

human Claudin18.2 [3] = target: T1, human Claudin18.2; test: Cell-based ELISA affinity on NUGC4 cells endogenously expressing human Claudin18.2; assay type: binding; conditions: for NUCG4 Maximum signal value: OD450
human Claudin18.2 [4] = target: T1, human Claudin18.2; test: Cell-based FACS affinity on HEK293T-Claudin18.2 (human) cells; assay type: binding
Procedure: The affinity of the anti-human Claudin18.2 humanized antibodies was detected by flow cytometry. The experimental procedures were as follows: The adherent cultured HEK293T-Claudin18.2 (human), NUGC4-Claudin18.2 (human) and NUGC4 cells were digested, collected by centrifugation, and washed three times with pre-cooled PBS. The cells were resuspended in 1% BSA (in PBS) and added to a 96-well pointed bottom plate at 3×10^5 cells/well, with a volume of 50 μL per well. Each test antibody was diluted with 1% BSA (in PBS) (starting at 100 μg/mL, diluted in a 3-fold gradient, for 10 concentration points). The test antibody subjected to gradient dilution was added to the cells at 50 μL/well, and the mixture was well mixed and incubated at 4° C. for 1 h. The cells were collected by centrifugation, washed three times with pre-cooled PBS, and resuspended in 50 μL of 1% BSA (in PBS). 1 μL of a fluorescent secondary antibody (Biolegend-410712) was added to each well, and the mixture was well mixed and incubated at 4° C. for 0.5 h. The cells were collected by centrifugation, washed three times with pre-cooled PBS, resuspended in 200 μL of PBS, and assayed on a machine.

human Claudin18.1 = target: T2, human Claudin18.1 (Homo sapiens, UniProt P56856); test: FACS specificity of humanized antibodies on HEK293T-Claudin18.1 (human) cells; assay type: binding; conditions: antibody 50 μg/mL, PE secondary antibody
T2 construct: expressed in transfected cells
Procedure: The specificity of the anti-human Claudin18.2 humanized monoclonal antibodies was determined by flow cytometry (FACS). The experimental procedures were as follows: HEK293T-Claudin18.1 (human) cells were digested, collected by centrifugation, washed three times with pre-cooled PBS, resuspended in 1% BSA (in PBS), and added to a 96-well pointed bottom plate at 3×10^5 cells/well. Each test antibody with a final concentration of 50 μg/mL was added, and the mixture was incubated at 4° C. for 1 h. The cells were washed three times with pre-cooled PBS, and then 1 μL of a fluorescent secondary antibody (APC: Biolegend-410712 or PE: BioLegend-410708) was added to each well. The mixture was incubated at 4° C. for 0.5 h, and the cells were washed three times with pre-cooled PBS, then resuspended, and assayed on a flow cytometer. For reference, anti-human Claudin18.1 positive control antibodies (positive control antibody-1 and positive control antibody-2) were included in the experiment.

[5] = test system: HEK293T-Claudin18.2 (human) cells; test: ADCC activity, fluorescein reporter system (Jurkat-NFAT-CD16a); assay type: cell-based; conditions: HEK293T-Claudin18.2 (human) target cells, 5 h
Procedure: ADCC activity of the anti-human Claudin18.2 humanized monoclonal antibodies was detected by a fluorescein reporter system. The experiment was carried out using a Rhinogen® Bio-Glory One-Step Firefly Luciferase Assay kit (Suzhou Rhino Bio, RA-GL04), following the manufacturer's instructions. The experimental procedures were as follows: HEK293T-Claudin18.2 (human) cells were digested, collected by centrifugation, resuspended in DMEM+1% FBS, and then plated at 50000 cells/well. Jurkat-NFAT-CD16a cells were collected by centrifugation and resuspended in 1640+1% FBS, and then plated at 100000 cells/well. Each test antibody subjected to gradient dilution was added, and the mixture was incubated at 37° C. for 5 h. 50 μL of a Bio-Glory One-Step luciferase substrate was added to each well, and readings were taken on a microplate reader (MD, SpectraMax i3x).

human Claudin18.2 [6] = target: T1, human Claudin18.2; test: Cell ELISA affinity before and after conjugation, NUGC4 cells; assay type: binding; conditions: FIG. 8B
Procedure: The cell binding affinity of the antibody before and after conjugation to the toxin was detected according to a method similar to that described in Example 2.2. L929-claudin 18.2 (human) or NUGC4 cells were digested with trypsin, collected by centrifugation, washed three times with pre-cooled PBS, resuspended, added to a 96-well plate at 5×10^4 cells/well, and incubated overnight. The cells were fixed with 4% paraformaldehyde and blocked with 2% BSA (in PBS) at 37° C. for 2 h. Each ADC drug or antibody subjected to gradient dilution was added, and the mixture was incubated at 37° C. for 2 h. […] A TMB substrate was added for color development, and after the reaction was stopped by 2 M HCl, OD450 nm values were read on a microplate reader.

Row | Molecule | Affinity detected by cell-based ELISA (EC50, ng/mL) L929-Claudin18.2 (human Claudin18.2 [1]) | Affinity detected by cell-based ELISA (EC50, ng/mL) HEK293T-Claudin18.2 (human Claudin18.2 [2]) | NUCG4 EC50 (human Claudin18.2 [3]) [µg/mL] | NUCG4 Maximum signal value (human Claudin18.2 [3]) | HEK293T-Claudin18.2 EC50 (human Claudin18.2 [4]) [µg/mL] | HEK293T-Claudin18.2 Maximum signal value (human Claudin18.2 [4]) | Mean PE fluorescence signal value (human Claudin18.1) | Median PE fluorescence signal value (human Claudin18.1) | Positive rate (%) (human Claudin18.1) | ADCC activity EC50 [5] [µg/mL] | change in affinity for the cells before and after conjugation (human Claudin18.2 [6])
1 | B1 | 13.41 ng/mL | 11.15 ng/mL | 0.1012 | 0.304 | 0.292 | 113572 | 583 | 504 | 0.54 | 0.04649 | no significant changes in the affinity
2 | B2 | 14.80 ± 3.1(N = 2) ng/mL | 11.17 ± 2.19(N = 2) ng/mL | 0.1225 | 0.313 | 0.2928 | 119070 | 559 | 471 | 0.55 | 0.04875 | no significant changes in the affinity
